Test results as given in US20250170285A1, “RADIOLABELLED OLIGONUCLEOTIDES AND PROCESS FOR THEIR PREPARATION” (Hoffmann-La Roche Inc., priority 2018, published 2025).
Where two headings read alike, the source gives them in different places.

Assays:
[1] = in vivo
Method: (§1) Serial dilutions were made from stock solution (approx. 1 mg/mL in PCR grade water, the exact concentration of the stock solution will be quantified with the spectro-photometric device Nanodrop (Thermo Scientific) based on the extinction coefficient at 260 nm) to generate working solutions in water from approx. 100 ng/mL up to approx. 250000 ng/mL.
(§2) Calibration standards and quality control samples (freshly prepared in plasma, 50 μL) were treated for protein denaturation with 150 μL of 4 M guanidine thiocyanate after addition of the internal standard. After vigorously mixing (20 min at 1600 rpm), 200 μL of a water/hexafluoroisopropanol/diisopropylethylamine solution (100:4:0.2, v/v/v) were added, followed by mixing (15 min at 1500 rpm). Then a clean-up step was performed by means of solid-phase-extraction cartridges (Waters, OASIS HLB 5 mg, 30 μm) after elution and evaporation to dryness (30-45 min at +40° C.) the samples were reconstituted in 200 μL of mobile phase (water/methanol/hexafluoroisopropanol/diisopropylethylamine (95/5/1/0.2, v/v/v/v)). After vortex mixing (10 min at 1500 rpm), an aliquot (20 μL) was injected into a LC-MS/MS system (50 μL loop).
(§3) A Shimadzu 30ADXR pump was used, equipped with a Waters Acquity C18 column (50×2.1 mm) at 60° C. […]

[2] = Single dose PK experiment: liver concentration of tritium labeled LNAs by LSC; assay type: in vivo; settings: single dose 1 mg/kg; liver 24, 72 and 336 h after dosing; radioactivity by LSC, FIG. 2
Method: A single dose PK experiment with Example 3.b ([^3H]-compound 2 based on conjugate 4) and Example 3.c ([^3H]-compound 3 based on conjugate 7) at 1 mg/kg was done. LNAs were analyzed in liver 24, 72 and 336 h after dosing. The study will confirm the feasibility of oligonucleotides with radioactive conjugation.
A Packard Tri-carb 3100TR was used for LSC analysis.
In FIG. 2 the liver concentration of the tritium labeled compounds of Example 3.b (dotted line) and Example 3.c (continuous line) have been analyzed by LSC.

[3] = Tissue exposure study: liver concentration of unlabeled LNAs by LC-MS/MS; settings: analyzed by LC-MS/MS, FIG. 1
Method: as §1, §2, §3

In the case of “5′-GN2-C6-ca G*A*G*t*t*a*c*t*t*g*c*c*a*A*C*T*-3′ (CAGAGTTACTTGCCAACT; 5'-GalNAc2-C6 conjugate, LNA and phosphorothioate, case key not given here, further chemistry not given here) [GalNAc LNA study compound A]”, the “liver concentration (liver uptake)” value [1] was “high initial uptake in the liver plasma and a normal decrease over the time”.
With “5′-GN2-C6-caG*A*G*t*t*a*c*t*t*g*c*c*a*A*C*T*-C6SH-[^3H]-NEM [Example 3.b]” the “liver concentration (liver uptake)” value [2] was “equivalent liver uptake as a therapeutic GalNAc LNA”.
In the case of “5′-G*A*G*t*t*a*c*t*t*g*c*c*a*A*C*T*-3′ (GAGTTACTTGCCAACT; all phosphorothioate, sugars by position and methylation of C not given here; further chemistry not fully specified) [LNA study compound A]”, the “liver concentration (liver uptake)” value [3] was “lower level of uptake”.
